# From US5948622
# Molecular target: T1, Tn5 transposase EK54/MA56/LP372 (Escherichia coli transposon Tn5) (UniProt Q46731)
# T1 sequence: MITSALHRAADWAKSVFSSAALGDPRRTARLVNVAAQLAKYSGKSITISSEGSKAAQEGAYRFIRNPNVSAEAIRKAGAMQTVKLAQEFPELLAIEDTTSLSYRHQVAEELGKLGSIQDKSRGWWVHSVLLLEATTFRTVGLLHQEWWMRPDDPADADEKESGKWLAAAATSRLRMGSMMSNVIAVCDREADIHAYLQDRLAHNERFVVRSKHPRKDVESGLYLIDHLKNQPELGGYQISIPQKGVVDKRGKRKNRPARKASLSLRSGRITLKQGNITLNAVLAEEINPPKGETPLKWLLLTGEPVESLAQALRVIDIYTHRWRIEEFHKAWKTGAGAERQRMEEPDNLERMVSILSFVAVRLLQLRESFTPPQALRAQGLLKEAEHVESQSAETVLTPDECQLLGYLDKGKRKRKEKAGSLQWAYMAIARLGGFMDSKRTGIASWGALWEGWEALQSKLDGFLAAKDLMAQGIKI
# Details: pRZTL1 in vitro transposition; Mg acetate 10 mM, K glutamate 0.1 M, 20 C then 37 C; tet-resistance frequency, gel confirmed
sequence,measurement,value
AGT (double strand) [Tn5 outside end (OE) wild type],activity,0.1 % of cells
